Our source for the EC50 values is patent publication US20170166631A1 (published 2017).

Where two headings read alike, the source gives them in different places. Bounds are passed on as bounds.

Common to all, as to assay: ELISA
The target in experiment [1] is T1, HD21 (huntingtin exon 1 protein with 21 polyQ repeats after cleavage of the GST tag; aggregation reaction) (human, UniProt P42858 1-88).
T1 chain: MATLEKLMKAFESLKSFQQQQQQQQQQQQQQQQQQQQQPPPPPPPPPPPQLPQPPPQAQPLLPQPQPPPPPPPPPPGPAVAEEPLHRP

The target of experiment [2] is T2, HD49 (huntingtin exon 1 protein with 49 polyQ repeats after cleavage of the GST tag; aggregation reaction) (human, UniProt P42858 1-88).
T2 chain: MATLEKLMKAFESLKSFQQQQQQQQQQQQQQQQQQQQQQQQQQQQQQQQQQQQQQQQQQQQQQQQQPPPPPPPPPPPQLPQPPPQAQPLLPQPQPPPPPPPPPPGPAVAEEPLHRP

Experiment [3] has as its target T3, GST-HttExon1Q21 (recombinant huntingtin exon 1 protein with 21 polyQ repeats fused to an N-terminal GST tag) (;human, UniProt P08515 1-218 = GST; P42858 1-88).
Experiment [4] deals with T1, HD21 (huntingtin exon 1 protein with 21 …).
For experiment [5], the target named is T2, HD49 (huntingtin exon 1 protein with 49 …).
Experiment [6] concerns the target T3, GST-HttExon1Q21 (recombinant huntingtin …). The source holds these as a separate data set.
The target in experiment [7] is T1, HD21 (huntingtin exon 1 protein with 21 …).
The target of experiment [8] is T2, HD49 (huntingtin exon 1 protein with 49 …).
The target of experiment [9] is T3, GST-HttExon1Q21 (recombinant huntingtin …). This is another data set of the same source.
In experiment [10] the target is T1, HD21 (huntingtin exon 1 protein with 21 …).
The target of experiment [11] is T2, HD49 (huntingtin exon 1 protein with 49 …).
In experiment [12] the target is T3, GST-HttExon1Q21 (recombinant huntingtin …). The source holds these as a separate data set.
In experiment [13] the target is T1, HD21 (huntingtin exon 1 protein with 21 …).
Experiment [14] has as its target T2, HD49 (huntingtin exon 1 protein with 49 …).
For experiment [15], the target named is T4, BSA-coupled synthetic peptide of the P-rich domain sequence of huntingtin exon 1 (coupled to BSA).
T4 peptide: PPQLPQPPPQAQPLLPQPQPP

For experiment [16], the target named is T3, GST-HttExon1Q21 (recombinant huntingtin …). This is another data set of the same source.
Target sequence in this assay (P08515 1-218, tags or fused parts left off): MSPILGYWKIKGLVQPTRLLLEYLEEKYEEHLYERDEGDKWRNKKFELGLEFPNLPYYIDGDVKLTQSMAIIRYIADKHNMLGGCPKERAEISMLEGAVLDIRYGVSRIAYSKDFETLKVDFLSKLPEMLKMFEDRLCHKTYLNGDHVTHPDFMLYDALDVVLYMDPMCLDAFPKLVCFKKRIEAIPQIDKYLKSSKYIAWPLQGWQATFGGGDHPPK
The target in experiment [17] is T1, HD21 (huntingtin exon 1 protein with 21 …).
For experiment [18], the target named is T3, GST-HttExon1Q21 (recombinant huntingtin …). The source holds these as a separate data set.

B1: NI-302.7A8 (antibody, V domains shown)
VH: EVQLVESGGGSVQPGGSLRLSCVASGFIFRNSWMTWVRQDPGKGLEWVANIKEDGSRTYYVDSVKGRFTISRDNAKNSLYLQMNSLRAEDTAVYYCARGDYNSGIYYFPGDYWGQGTLVTVSS
VL: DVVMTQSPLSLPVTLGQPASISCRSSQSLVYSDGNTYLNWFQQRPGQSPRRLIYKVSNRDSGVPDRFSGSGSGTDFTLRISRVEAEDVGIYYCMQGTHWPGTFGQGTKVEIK
On to B1, for which the EC50 in [1] came out at 0.4 nM; in experiment [2], 1.5 nM; in experiment [3] it was 0.2 nM; in [4] it was 0.4 nM; in [5], 1.5 nM; in experiment [6] it was 0.2 nM.

B2: NI-302.78H12 (antibody, V domains shown)
VH: QVQLQESGPGLVKPSETLSLTCLVSSYSISNGYYWGWIRQPPGKGLEWIGSIYHNGNTYYNPSLKSRVIISVDTSKNQFSLKLRSVTAADTAVYYCAMPSATYYYGSGTQFHAFDVWGQGTTVTVSS
VL: QSALTQPRSVSGSPGQSVTISCTGTSRDVGNYNYVSWYQQHPGEVPKLIIYDVSERPSGVPDRFSGSKSGNTASLTISGLQAEDEADYYCCSYAGSYTFEVFGGGTKLTVL
On to B2, for which the EC50 came to 1.1 nM in [1]; 1.6 nM in experiment [2]; 0.5 nM in experiment [3]; 1.1 nM in [4]; 1.6 nM in experiment [5]; 0.5 nM in experiment [6].

B3: NI-302.71F6 (antibody, V domains shown)
VH: QVQLQQWGAGLLKPSETLSLTCAVYGGSLSGYYWSWIRQPPGKGLEWIGEVNHSGGTNLNSSLKSRVIISVDKSKKQFSLKLSSVTAADTAMYFCARGYSYDPKYYFDSWSQGTLVTVSS
VL: QSALTQPASVSGSPGQAITISCTGTSSDIGSYDFVSWYQQDPGKAPKVIIYGVNKRPSGVSNRFSGSKSGNTASLTISGLQADDEADYYCCSYAGSTTWVFGGGTKLTVL
In the case of B3, the 50% effective concentration (EC50) in experiment [7] is 7.6 nM; in [8], 4.4 nM; in [9] it was 3 nM; in experiment [4], 7.6 nM; in experiment [5] it was 4.4 nM; in experiment [6], 3 nM.

B4: NI-302.31F11 (antibody, V domains shown)
VH: EVQLVESGGGLIQPGGSLRLSCAASGFTVSSTYMSWVRQAPGKGLECVSVIFSGADTYYADSVKGRFTVSRDNSKNTLFLQMNSLRVEDTATYYCVRHYYGSDLPSDFWGQGTLVTVSS
VL: DVVMTQSPLSLPVAPGEPASISCRSSQSLLYSNGYNYLDWYLQKPGKPPQLLVYLGSDRASGVPDRFSGSGSGKDFTLNISRVEAEDVGVYYCMQGLQSPWTFGQGTKLEIK
Regarding B4, the EC50 in [10] is 4.3 nM; in [11] it was 0.6 nM; in [12] it was 0.9 nM; in experiment [13], 4.3 nM; in [14] it was 0.6 nM; in experiment [15], 0.5 nM. Besides, in experiment [16], the concentration giving a half-maximal response (EC50) stood at 0.9 nM.

B5: NI-302.3D8 (antibody, V domains shown)
VH: EVQLVQSGGGLVQPGGSLRLSCEASGFIFKTYAMSWVRQLPGRGLEWVSAISATGGSTFYAESVKGRLTISRDTAKNTVYLQMNNLRAEDTAMYYCAKGSTAVYLFDSWGQGTLVTVSS
VL: DIQMTQSPSSLSASVGDRVTLTCRASQDIRNFLAWIQQKPGKPPKSLIYAASTLQSGVPSRFSGSGSGTDFTLTISSLHPEDFATYYCQQFYNYPPTFGQGTKVEIK
With B5, the concentration for a half-maximal effect (EC50) in experiment [7] was 0.02 nM; in experiment [8] it was 0.03 nM; in [9], 0.05 nM; in experiment [4], 0.02 nM; in experiment [5] it was 0.03 nM; in experiment [6], 0.05 nM.

B6: NI-302.11H6 (antibody, V domains shown)
VH: EVQLVQSGAVMKKPGDSVRVSCRASTYSFSTYSFTWVRQVPGQGLEWMGWISAYNGHTNYVDSFQGRLTLTTDTSASTAYMELRSLRSDDTAIYYCAAVDTTYYYYGMDVWGQGTLVTVSS
VL: QTVVTQEPTFSVSPGGTVTLTCALRFGSVSSSYYPSWFQQTPGQAPRTLIYSTNTRSSGVPARFSGSILGNKAALTIAGAQANDEADYYCVLYMGSGIGVFGGGTKLTVL
For B6, the EC50 in [7] was found to be 1.22 nM; in experiment [8], 0.16 nM; in [9], 0.24 nM; in experiment [4], 1.2 nM; in [5] it was 0.2 nM; in [6] it was 0.2 nM.

B7: NI-302.7D8 (antibody, V domains shown)
VH: QVQLVQSGSELKKPGASVKVSCKASGYNFNNYAINWLRQAPGQGLEWMGWINTITGHPTYAQGFKGRFVFSLDTSVSTAYLQISSLKPEDTAVYYCARTYSNYGEFDYWGQGTLVTVSS
VL: QSALTQPASVSGSRGQSITISCTGTSSDVGSYNLVSWYQQYPGKAPKLIIHEGSERPSGVSNRFSGSKSGNTASLTISGLQAEDEADYYCCSYAGTTTFVLFGGGTKLTVL
As to B7, the EC50 in [13] is over 100 nM; in experiment [16], 51 nM; in [17] it was over 100 nM; in [18], 51 nM.

B8: NI-302.6N9 (antibody, V domains shown)
VH: EVQLVESGGDLVQPGGSLRLSCVVSGFTFSSYAMTWVRQAPGKGLAWVSTISATGGSTFYTDSVRGRFTISRDNSKNTLYLQMNSLRTDDTAIYYCVKDLFGVDTSYYGMDVWGQGTTVTVSS
VL: EIVLTQSPGTLSLSPGERATLSCRPSQSVSGRYVAWYQQKPGQAPRLLFYAASNRAIGIPDRFSGSGSGTDFTLTISRLEPEDFAVYYCQHYGASSYTFGPGTKVDIK
Take B8: the half-maximal effective concentration (EC50) in [10] is 0.21 nM; in experiment [11], 0.19 nM; in experiment [12], 0.24 nM; in experiment [13], 0.21 nM; in experiment [14], 0.19 nM; in [16] it was 0.24 nM.

B9: NI-302.55D8 (antibody, V domains shown)
VH: QVQLVQSGSEVKKPGASVKVSCKASGYTFTDYYIHWVRQAPGQGLEWMGRINPNNGGTNYAQNFQGWVTMTRDTSISTAYMELSRLRSDDTAVYYCARVGGELLREGGYHYYMDVWGKGTTVTVSS
VL: QSVLTQPPSVSGAPGQRVTISCTGNSSNIGAGYDVHWYQQLPGTAPKLLIFDNTNRPSGVPDRFSGSKSGTSASLAITGLQAEDEANYHCQSYDNSLSGSWVFGGGTKLTVL
B9: the EC50 in experiment [1] was 1.2 nM; in experiment [2] it was 1.7 nM; in [3], about 0.2 nM; in experiment [4], 1.2 nM; in experiment [5], 1.7 nM; in experiment [6], 0.2 nM.

B10: NI-302.74C11 (antibody, V domains shown)
VH: EVQLVQSGTEVQKPGASVKVSCKASGYSFTGYFLHWVRQAPGQGLEWMGWINPNSGDTNYAEKFRGRIIMTRDTSVSTAHMELSSLRFDDTALYYCTREAPDPGAETDVWGQGTTVTVSS
VL: QSVLTQPPSVSVSPGQTARITCSGDAVPKQYIYWYQQKPGQAPILVIYKDTQRPSGIPERFSGSNSGTTVTLTITGVQADDEGDYYCQSADSSATWVFGGGTKLTVL
In the case of B10, the EC50 in experiment [10], in experiment [11], in [12], in experiment [13], in experiment [14] and in experiment [16] was 0.5 nM throughout.
